Patent US5198419A, “Formulated medicines for enhancing the efficacy of beta-lactam antibiotics in prophylaxis and treatment against infectious disease due to pathogenic bacteria” (Immuno Japan Inc., priority 1989, dated 1993)

What was measured:
bacteria = conditions: iron-free lactoferrin; previous studies; cited from earlier work
Serratia marcescens No 2 = assay: MIC of apolactoferrin on agar-plate medium; assay type: cell-based
Excerpt: (§1) The minimum inhibitory concentration of apolactoferrin against
(§2) bacteria on the agar-plate medium.

[1] = system: Klebsiella pneumoniae GN69; assay: MIC of apolactoferrin on agar-plate medium; assay type: cell-based
Excerpt: as §1, §2

Salmonella paratyphi B = assay: MIC of apolactoferrin on agar-plate medium; assay type: cell-based
Excerpt: as §1, §2

Proteus mirabilis GN79 = assay: MIC of apolactoferrin on agar-plate medium; assay type: cell-based
Excerpt: as §1, §2

[2] = system: Bacillus subtilis ATCC 6633; assay: MIC of apolactoferrin on agar-plate medium; assay type: cell-based
Excerpt: as §1, §2

Vibrio cholerae 569B = assay: MIC of apolactoferrin on agar-plate medium; assay type: cell-based
Excerpt: as §1, §2

[3] = system: Serratia marcescens No 78; assay: MIC of apolactoferrin on agar-plate medium; assay type: cell-based
Excerpt: as §1, §2

Citrobacter freundii 2 = assay: MIC of apolactoferrin on agar-plate medium; assay type: cell-based
Excerpt: as §1, §2

Salmonella typhi = assay: MIC of apolactoferrin on agar-plate medium; assay type: cell-based
Excerpt: as §1, §2

Pr. rettgeri IFO 13501 = assay: MIC of apolactoferrin on agar-plate medium; assay type: cell-based
Excerpt: as §1, §2

Shigella flexineri = assay: MIC of apolactoferrin on agar-plate medium; assay type: cell-based
Excerpt: as §1, §2

[4] = system: Micrococcus lutens ATCC 9341; assay: MIC of apolactoferrin on agar-plate medium; assay type: cell-based
Excerpt: as §1, §2

Pr. morganii IFO 3848 = assay: MIC of apolactoferrin on agar-plate medium; assay type: cell-based
Excerpt: as §1, §2

[5] = system: Staphylococcus aureus 209p; assay: MIC of apolactoferrin on agar-plate medium; assay type: cell-based
Excerpt: as §1, §2

Pr. morganii GN125 = assay: MIC of apolactoferrin on agar-plate medium; assay type: cell-based
Excerpt: as §1, §2

Klebsiella oxytoca 1006 = assay: MIC of apolactoferrin on agar-plate medium; assay type: cell-based
Excerpt: as §1, §2

[6] = system: Staphylococcus aureus Smith; assay: MIC of apolactoferrin on agar-plate medium; assay type: cell-based
Excerpt: as §1, §2

[7] = system: Pseudomonas aeruginosa E 7; assay: MIC of apolactoferrin on agar-plate medium; assay type: cell-based
Excerpt: as §1, §2

Proteus mirabilis 1287 = assay: MIC of apolactoferrin on agar-plate medium; assay type: cell-based
Excerpt: as §1, §2

[8] = system: Staphylococcus aureus 227; assay: MIC of apolactoferrin on agar-plate medium; assay type: cell-based
Excerpt: as §1, §2

[9] = system: Citrobacter freundii GN 346; assay: MIC of apolactoferrin on agar-plate medium; assay type: cell-based
Excerpt: as §1, §2

[10] = system: Escherichia coli NIHJ JC-2; assay: MIC of apolactoferrin on agar-plate medium; assay type: cell-based
Excerpt: as §1, §2

Pr. inconstans GN 627 = assay: MIC of apolactoferrin on agar-plate medium; assay type: cell-based
Excerpt: as §1, §2

Escherichia coli C11 = assay: MIC of apolactoferrin on agar-plate medium; assay type: cell-based
Excerpt: as §1, §2

[11] = system: Proteus vulgaris IFO 3851; assay: MIC of apolactoferrin on agar-plate medium; assay type: cell-based
Excerpt: as §1, §2

Salmonella paratyphi A = assay: MIC of apolactoferrin on agar-plate medium; assay type: cell-based
Excerpt: as §1, §2

Pr. inconstans IFO 12930 = assay: MIC of apolactoferrin on agar-plate medium; assay type: cell-based
Excerpt: as §1, §2

[12] = system: Enterobacter cloacae No 91; assay: MIC of apolactoferrin on agar-plate medium; assay type: cell-based
Excerpt: as §1, §2

Shigella sonnei = assay: MIC of apolactoferrin on agar-plate medium; assay type: cell-based
Excerpt: as §1, §2

Escherichia coli No 35 = assay: MIC of apolactoferrin on agar-plate medium; assay type: cell-based
Excerpt: as §1, §2

[13] = system: Enterobacter feacalis 95-1; assay: MIC of apolactoferrin on agar-plate medium; assay type: cell-based
Excerpt: as §1, §2

Enterobacter feacalis 64 = assay: MIC of apolactoferrin on agar-plate medium; assay type: cell-based
Excerpt: as §1, §2

Pr. rettgeri GN624 = assay: MIC of apolactoferrin on agar-plate medium; assay type: cell-based
Excerpt: as §1, §2

Proteus vulgaris GN76 = assay: MIC of apolactoferrin on agar-plate medium; assay type: cell-based
Excerpt: as §1, §2

Kleb. pneumoniae 3K25 = assay: MIC of apolactoferrin on agar-plate medium; assay type: cell-based, Klebsiella pneumoniae
Excerpt: as §1, §2

[14] = system: Kleb. pneumoniae ATCC 10031; assay: MIC of apolactoferrin on agar-plate medium; assay type: cell-based, Klebsiella pneumoniae
Excerpt: as §1, §2

[15] = system: Kleb. pneumoniae IFO 3512; assay: MIC of apolactoferrin on agar-plate medium; assay type: cell-based, Klebsiella pneumoniae
Excerpt: as §1, §2

[16] = system: Ser. marcescens IFO 12648; assay: MIC of apolactoferrin on agar-plate medium; assay type: cell-based, Serratia marcescens
Excerpt: as §1, §2

Pseu. aeruginosa No. 11 = assay: MIC of apolactoferrin on agar-plate medium; assay type: cell-based, Pseudomonas aeruginosa
Excerpt: as §1, §2

Pseu. aeruginosa No. 47 = assay: MIC of apolactoferrin on agar-plate medium; assay type: cell-based, Pseudomonas aeruginosa
Excerpt: as §1, §2

Pseu. aeruginosa TMS 11 = assay: MIC of apolactoferrin on agar-plate medium; assay type: cell-based, Pseudomonas aeruginosa
Excerpt: as §1, §2

[17] = system: Pseu. aeruginosa IFO 3445; assay: MIC of apolactoferrin on agar-plate medium; assay type: cell-based, Pseudomonas aeruginosa
Excerpt: as §1, §2

most pathogenic bacteria = assay: Antibacterial activity of apolactoferrin in vitro, most bacteria; assay type: cell-based; conditions: most of the bacteria
Excerpt: (§3) Therefore, even though the lactoferrins have very weak antibacterial activity in vitro, it is questionable that they exert direct antibacterial activity against bacteria infecting mammals.
as §1, §2

[18] = system: St. epidermidis ATCC 13288; assay: MIC of apolactoferrin on agar-plate medium; assay type: cell-based, Streptococcus epidermidis
Excerpt: as §3, §1, §2

B1: apolactoferrin: iron-free lactoferrin, from bovine milk (protein, UniProt P24627 20-708, looked up)
Lactotransferrin: APRKNVRWCTISQPEWFKCRRWQWRMKKLGAPSITCVRRAFALECIRAIAEKKADAVTLDGGMVFEAGRDPYKLRPVAAEIYGTKESPQTHYYAVAVVKKGSNFQLDQLQGRKSCHTGLGRSAGWIIPMGILRPYLSWTESLEPLQGAVAKFFSASCVPCIDRQAYPNLCQLCKGEGENQCACSSREPYFGYSGAFKCLQDGAGDVAFVKETTVFENLPEKADRDQYELLCLNNSRAPVDAFKECHLAQVPSHAVVARSVDGKEDLIWKLLSKAQEKFGKNKSRSFQLFGSPPGQRDLLFKDSALGFLRIPSKVDSALYLGSRYLTTLKNLRETAEEVKARYTRVVWCAVGPEEQKKCQQWSQQSGQNVTCATASTTDDCIVLVLKGEADALNLDGGYIYTAGKCGLVPVLAENRKSSKHSSLDCVLRPTEGYLAVAVVKKANEGLTWNSLKDKKSCHTAVDRTAGWNIPMGLIVNQTGSCAFDEFFSQSCAPGADPKSRLCALCAGDDQGLDKCVPNSKEKYYGYTGAFRCLAEDVGDVAFVKNDTVWENTNGESTADWAKNLNREDFRLLCLDGTRKPVTEAQSCHLAVAPNHAVVSRSDRAAHVKQVLLHQQALFGKNGKNCPDKFCLFKSETKNLLFNDNTECLAKLGGRPTYEEYLGTEYVTAIANLKKCSTSPLLEACAFLTR
modifications: iron-free
notes: iron-free lactoferrin, from bovine milk
1,600 μg/ml: Minimum Inhibitory Conc. (Escherichia coli No 35)
more than 6,400 μg/ml: minimum inhibitory concentrations (most pathogenic bacteria)
6,400 μg/ml: Minimum Inhibitory Conc. (Pr. rettgeri GN624)
the most potent: antibacterial activity by degree of iron saturation (bacteria)
> 6,400 μg/ml: Minimum Inhibitory Conc. (Serratia marcescens No 2) | Minimum Inhibitory Conc. [1] | Minimum Inhibitory Conc. (Salmonella paratyphi B) | Minimum Inhibitory Conc. (Proteus mirabilis GN79) | Minimum Inhibitory Conc. [3] | Minimum Inhibitory Conc. (Citrobacter freundii 2) | Minimum Inhibitory Conc. (Salmonella typhi) | Minimum Inhibitory Conc. (Shigella flexineri) | Minimum Inhibitory Conc. [4] | Minimum Inhibitory Conc. (Pr. morganii IFO 3848) | Minimum Inhibitory Conc. [5] | Minimum Inhibitory Conc. (Klebsiella oxytoca 1006) | Minimum Inhibitory Conc. [6] | Minimum Inhibitory Conc. [7] | Minimum Inhibitory Conc. [8] | Minimum Inhibitory Conc. [9] | Minimum Inhibitory Conc. (Pr. inconstans GN 627) | Minimum Inhibitory Conc. (Escherichia coli C11) | Minimum Inhibitory Conc. [11] | Minimum Inhibitory Conc. (Salmonella paratyphi A) | Minimum Inhibitory Conc. (Pr. inconstans IFO 12930) | Minimum Inhibitory Conc. [12] | Minimum Inhibitory Conc. (Shigella sonnei) | Minimum Inhibitory Conc. (Proteus vulgaris GN76) | Minimum Inhibitory Conc. (Kleb. pneumoniae 3K25) | Minimum Inhibitory Conc. [14] | Minimum Inhibitory Conc. [15] | Minimum Inhibitory Conc. [16] | Minimum Inhibitory Conc. (Pseu. aeruginosa No. 11) | Minimum Inhibitory Conc. (Pseu. aeruginosa No. 47) | Minimum Inhibitory Conc. (Pseu. aeruginosa TMS 11) | Minimum Inhibitory Conc. [17]
800 µg/mL: Minimum Inhibitory Conc. [18]
3,200 μg/ml: Minimum Inhibitory Conc. [2] | Minimum Inhibitory Conc. (Vibrio cholerae 569B) | Minimum Inhibitory Conc. (Pr. rettgeri IFO 13501) | Minimum Inhibitory Conc. (Pr. morganii GN125) | Minimum Inhibitory Conc. (Proteus mirabilis 1287) | Minimum Inhibitory Conc. [10] | Minimum Inhibitory Conc. [13] | Minimum Inhibitory Conc. (Enterobacter feacalis 64)
